By EC50 is commonly meant the concentration at which the effect is half-maximal. Lower therefore signals greater potency. Broadly, the IC50 is the concentration at which inhibition is half-maximal.

Where two headings read alike, the source gives them in different places.

We go through 2 molecules from patent publication US20160264674A1 (ADURO BIOTECH HOLDINGS EUROPE B V, published 2016).

In experiment [1] the target is T1, FLAG-tagged human APRIL (human, UniProt O75888 105-250, limits assumed).
T1 construct: also called FLAG-tagged APRIL; FLAG-APRIL; not shown: FLAG tag
T1 sequence (looked up): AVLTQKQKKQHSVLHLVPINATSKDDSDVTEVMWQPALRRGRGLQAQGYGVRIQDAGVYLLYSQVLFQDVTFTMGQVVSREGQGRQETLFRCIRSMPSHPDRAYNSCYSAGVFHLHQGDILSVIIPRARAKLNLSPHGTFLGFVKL
As to the kind of experiment: FLAG-APRIL ELISA after 10 min at 65 °C, antibody at 1 µg/ml. The method, then: (§1) The plasmids encoding the VH and VL constructs were mixed in a 1:3 ratio (4 μg in total) and transiently expressed by transfection into HEK293T human embryonic kidney cells (HEK293T/17, ATCC-CRL-11268), using Lipofectamine 2000 transfection reagent (Invitrogen) following the manufacturer's instructions. Cell supernatants were harvested after 5 days and tested for expression of antibody and binding to APRIL using an enzyme-linked immuno assay (ELISA). In these ELISAs, all incubation steps were followed by a wash step with PBST (PBS with 0.01% Tween 20). Maxisorb 96-wells plates (Nunc) were coated with 0.5 μg/ml anti-FLAG (Sigma) or anti-IgG4 (Jackson laboratories) and incubated overnight at 4° C. Subsequently the anti-FLAG coated 96-wells plates were incubated with FLAG-tagged human APRIL for 1 hour at room temperature. Next, supernatants and dilutions thereof were incubated for 1 hour, which was followed by an incubation of 1 hour with mouse anti-human IgG HRP-conjugate (Southern Biotechnology).
(§2) To determine the effect of humanization on the stability of the antibodies, humanized antibodies were exposed to a range of temperatures for 10 minutes. Purified antibodies were diluted to 3.16 μg/ml and dilutions thereof in PBS. Next, these solutions were exposed to 65° C. or 70° C. and residual binding after heat treatment of the antibodies was measured using the FLAG-tagged APRIL ELISA assay as described before (see Table 6).
In general terms: ELISA stands for enzyme-linked immunosorbent assay.

The target in experiment [2] is T1, FLAG-tagged human APRIL. As to the kind of experiment: FLAG-APRIL ELISA after 10 min at 70 °C, antibody at 1 µg/ml. The procedure:
as §1, §2

Experiment [3] has as its target T1, FLAG-tagged human APRIL. As to the kind of experiment: FLAG-APRIL ELISA after 10 min at 65 °C, antibody at 3.16 µg/ml. The method, then:
as §1, §2

Experiment [4] has as its target T1, FLAG-tagged human APRIL. As to the kind of experiment: FLAG-APRIL ELISA after 10 min at 70 °C, antibody at 3.16 µg/ml. The procedure: as §1, §2
The target in experiment [5] is T1, FLAG-tagged human APRIL. Briefly: FLAG-APRIL ELISA after 10 min at 65 °C, antibody at 0.316 µg/ml. The method, then:
as §1, §2

Experiment [6] addresses T1, FLAG-tagged human APRIL. Briefly: FLAG-APRIL ELISA after 10 min at 70 °C, antibody at 0.316 µg/ml. The method, then: as §1, §2
In experiment [7] the target is T1, FLAG-tagged human APRIL. Briefly: ELISA: FLAG-tagged human APRIL captured on anti-FLAG plate, purified antibody titrated. The procedure: as §1
A subset of humanized antibodies described above was selected for further analyses. Again, plasmids encoding the VH and VL constructs were mixed in a 1:3 ratio (32 μg) and transiently expressed by transfection into (8*10⁶) HEK293T human embryonic kidney cells (HEK293T), using Lipofectamine 2000 transfection reagent (Invitrogen) according to the manufacturer's instructions. Supernatants were harvested (10 ml) and antibodies were purified using MabSelect Sure Protein A resin according to the manufacturer's instructions (GE Healthcare). Buffer was exchanged for PBS using Zeba desalting columns (Thermo Scientific). The concentration of purified antibodies was determined based on OD280 (Nanodrop ND-1000). The binding of the purified antibodies to APRIL was established using the above described APRIL ELISA. The blocking capability of the humanized antibodies with BCMA and TACI receptors, was tested in a competition ELISA. In these ELISAs, all incubation steps were followed by a wash step with PBST (PBS with 0.01% Tween 20). Maxisorb 96-wells plates (Nunc) were coated with 0.5 μg/ml Fc-BCMA (R&D Systems) or Fc-TACI (R&D Systems) and incubated overnight at 4° C. Next, humanized antibodies and dilutions thereof were incubated, premixed with FLAG-tagged APRIL, for 1 hour, which was followed by an incubation of 1 hour with anti-FLAG HRP-conjugate (Sigma).

Experiment [8] concerns the target T1, FLAG-tagged human APRIL. As to the kind of experiment: competition ELISA: antibody premixed with FLAG-tagged APRIL, added to coated Fc-BCMA, anti-FLAG HRP. The procedure:
(§3) A subset of humanized antibodies described above was selected for further analyses. Again, plasmids encoding the VH and VL constructs were mixed in a 1:3 ratio (32 μg) and transiently expressed by transfection into (8*10⁶) HEK293T human embryonic kidney cells (HEK293T), using Lipofectamine 2000 transfection reagent (Invitrogen) according to the manufacturer's instructions. Supernatants were harvested (10 ml) and antibodies were purified using MabSelect Sure Protein A resin according to the manufacturer's instructions (GE Healthcare). Buffer was exchanged for PBS using Zeba desalting columns (Thermo Scientific). The concentration of purified antibodies was determined based on OD280 (Nanodrop ND-1000). The binding of the purified antibodies to APRIL was established using the above described APRIL ELISA. The blocking capability of the humanized antibodies with BCMA and TACI receptors, was tested in a competition ELISA. In these ELISAs, all incubation steps were followed by a wash step with PBST (PBS with 0.01% Tween 20). […] Reactions were stopped with 100 μl 0.5 M H2504 and absorbances were measured at 450 and 620 nm. Calculated EC₅₀ and IC₅₀ representing the concentration at which 50% of the total binding signal or blocking is observed are represented in Table 5.

In experiment [9] the target is T1, FLAG-tagged human APRIL. Briefly: ELISA: FLAG-tagged human APRIL captured on anti-FLAG plate, purified antibody titrated. This is another data set of the same source.
In experiment [10] the target is T1, FLAG-tagged human APRIL. Described as above. This is another data set of the same source.
Experiment [11] deals with T1, FLAG-tagged human APRIL. As to the kind of experiment: competition ELISA: antibody premixed with FLAG-tagged APRIL, added to coated Fc-BCMA, anti-FLAG HRP. The method, then:
as §3, with “Again,” for “A subset of humanized antibodies described above was selected for further analyses. Again,”, “20). Maxisorb 96-wells plates (Nunc) were coated with 0.5 μg/ml Fc-BCMA (R&D Systems) or Fc-TACI (R&D Systems) and incubated overnight at 4° C.” for “20).”, “5. […]” for “5.”
The source holds these as a separate data set.

The target in experiment [12] is T1, FLAG-tagged human APRIL. The experiment is described as above. This is another data set of the same source.

B1: VH11.VL15 (antibody, human IgG4 S228P, kappa, V domains shown)
VH: QVQLVQSGAEVKKPGASVKVSCKASGYTFTSYVMHWVRQAPGQRLEWMGYINPYNDAPKYNEKFKGRVTITRDTSASTAYMELSSLRSEDTAVYYCARGLGYALYYAMDYWGQGTTVTVSS
VL: DIVMTQSPSTLSASVGDRVTITCKASQNVGNNVAWYQQKPGKAPKLLISSASNRDSGVPSRFSGSGSGTEFTLTISSLQPDDFATYFCQQYNIYPFTFGQGTKLEIKR
notes: Humanized IgG4 (S241P, Kabat) with human kappa, from HEK293T; also called 11.15
Regarding B1, the “% residual binding after heat treatment (room temperature = 100%)” value with FLAG-tagged human APRIL [1] amounted to 55.1%; with FLAG-tagged human APRIL [2], 62.4%; in the experiment with FLAG-tagged human APRIL [3] it was 63.1%; with FLAG-tagged human APRIL [4] it was 59.1%; in the experiment with FLAG-tagged human APRIL [5], 74.6%; with FLAG-tagged human APRIL [6] it was 82%. Moreover, in the experiment with FLAG-tagged human APRIL [7], the EC50 was 121 nM. Further, the IC50 in the experiment with FLAG-tagged human APRIL [8] is 4.3 nM.

B2: hAPRIL.01A (antibody, mouse IgG1, kappa, V domains shown)
VH: EVQLQQSGPELVKPGASVKMSCKASGYTFTSYVMHWVKQKPGQGLEWIGYINPYNDAPKYNEKFKGKATVTSDKSSGTAYMELSSLTSEDSAVYYCARGLGYALYYAMDYWGQGTSVTVSS
VL: DIVMTQSQKFKSTSVGDRVSVTCKASQNVGNNVAWYQQKAGQSPKALISSASNRDSGVPDRFTGSGSGTDFTLTISNVQSEDLADYFCQQYNIYPFTFGSGTKLEIKR
notes: Mouse antibody; also called mouse hAPRIL.01A antibody
As for B2, the “% residual binding after heat treatment (room temperature = 100%)” value in the experiment with FLAG-tagged human APRIL [1] turned out to be 8.4%; in the experiment with FLAG-tagged human APRIL [2], 4.9%; in the experiment with FLAG-tagged human APRIL [3], 27.1%; with FLAG-tagged human APRIL [4], 6.7%; in the experiment with FLAG-tagged human APRIL [5], 13.7%; with FLAG-tagged human APRIL [6], 11.2%. Also, the EC50 in the experiment with FLAG-tagged human APRIL [9] and in the experiment with FLAG-tagged human APRIL [10] was 0.16 nM throughout. Besides, the IC50 with FLAG-tagged human APRIL [11] and with FLAG-tagged human APRIL [12] was 0.46 nM in each case.
